Experimental data as given in patent US20170298113A1 (TEL HASHOMER MEDICAL RESEARCH INFRASTRUCTURE AND SERVICES, published 2017).
*1 amine or outer side, *2 acyl side, *3 side chain or, on linkers, in order; H or OH if unused. Bridges are numbered along the chain shown (N, C = ends). Primed or numbered codes have the meaning given here. [ ]: non-standard residue; d: D form. N(2-mercaptoethyl)Gly = O=C(CN(CCS[*:3])[*:1])[*:2]; FITC′ = fluorescein isothiocyanate; Orn = NCCC[C@H](N)C(=O)O; Aib = CC(C)(N)C(=O)O; GABA = NCCCC(=O)O

B1: Compound 1 (peptide)
peptide: XCFWXKTFX
modifications: FITC-GABA-DPhe-Cys*-Phe-Trp-DTrp-Lys-Thr-Phe-GlyS2*-NH2 (* = S-S bond; GlyS2 = N-thioethyl glycine; FITC-GABA on the N-terminal amine; C-terminal amide)
B2: Compound 11 (peptide)
peptide: XXFWXKTFX
modifications: FITC-GABA-DPhe-HCys*-Phe-Trp-DTrp-Lys-Thr-Phe-GlyS2*-NH2 (* = S-S bond; HCys = homocysteine; GlyS2 = N-thioethyl glycine; C-terminal amide)
B3: Compound 16 (peptide)
peptide: XCFWXXTFX
modifications: FITC-GABA-DPhe-Cys*-Phe-Trp-DTrp-HomoLys-Thr-Phe-GlyS2*-NH2 (* = S-S bond; HomoLys = homolysine; GlyS2 = N-thioethyl glycine; C-terminal amide)
B4: Compound 6 (peptide)
peptide: {FITC′-GABA}-[dF]RCY[dW]KTF[N(2-mercaptoethyl)Gly]-NH2
modifications: disulfide 3-9
B5: Compound 3 (peptide)
peptide: XCFWXXTFX
modifications: FITC-GABA-DPhe-Cys*-Phe-Trp-DTrp-Orn-Thr-Phe-GlyS2*-NH2 (* = S-S bond; GlyS2 = N-thioethyl glycine; Orn = ornithine; C-terminal amide)
B6: Compound 2 (peptide)
peptide: {FITC′-GABA}-[dF]RCF[dW]KTF[N(2-mercaptoethyl)Gly]-NH2
modifications: disulfide 3-9
B7: Compound 7 (peptide)
peptide: {FITC′-GABA}-[dF]CY[dW][Orn]TF[N(2-mercaptoethyl)Gly]-NH2
modifications: disulfide 2-8
B8: Compound 14 (peptide)
peptide: XCFWXXTFX
modifications: FITC-GABA-DPhe-Cys*-Phe-Trp-DTrp-LysAc-Thr-Phe-GlyS2*-NH2 (* = S-S bond; LysAc = acetyllysine; GlyS2 = N-thioethyl glycine; C-terminal amide)
B9: Compound 13 (peptide)
peptide: {FITC′-GABA}-[dF]CFW[dW][Aib]TF[N(2-mercaptoethyl)Gly]-NH2
modifications: disulfide 2-9
B10: Compound 5 (peptide)
peptide: {FITC′-GABA}-[dF]RCF[dW][Orn]TF[N(2-mercaptoethyl)Gly]-NH2
modifications: disulfide 3-9
B11: Compound 8 (peptide)
peptide: {FITC′-GABA}-[dF]CRFF[dW]KTF[N(2-mercaptoethyl)Gly]-NH2
modifications: disulfide 2-10

Columns and labels:
[1] = target: human somatostatin receptor subtype SSTR4 (human) (UniProt P31391); assay: FACS, transfected HEK-293 cells
human somatostatin receptor subtype SSTR4 (human), sequence (P31391 whole entry): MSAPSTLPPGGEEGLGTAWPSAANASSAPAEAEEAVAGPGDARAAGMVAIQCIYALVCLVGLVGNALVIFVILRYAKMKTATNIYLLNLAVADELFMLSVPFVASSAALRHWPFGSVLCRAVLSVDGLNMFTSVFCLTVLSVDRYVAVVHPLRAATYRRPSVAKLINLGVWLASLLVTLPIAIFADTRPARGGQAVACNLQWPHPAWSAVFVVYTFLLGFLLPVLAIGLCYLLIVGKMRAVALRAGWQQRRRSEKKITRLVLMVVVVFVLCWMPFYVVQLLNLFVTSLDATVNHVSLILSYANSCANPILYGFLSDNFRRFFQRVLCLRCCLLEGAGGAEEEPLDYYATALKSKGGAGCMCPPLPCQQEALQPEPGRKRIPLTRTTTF

[2] = target: human somatostatin receptor subtype SSTR1 (human) (UniProt P30872); assay: FACS, transfected HEK-293 cells
human somatostatin receptor subtype SSTR1 (human), sequence (P30872 whole entry): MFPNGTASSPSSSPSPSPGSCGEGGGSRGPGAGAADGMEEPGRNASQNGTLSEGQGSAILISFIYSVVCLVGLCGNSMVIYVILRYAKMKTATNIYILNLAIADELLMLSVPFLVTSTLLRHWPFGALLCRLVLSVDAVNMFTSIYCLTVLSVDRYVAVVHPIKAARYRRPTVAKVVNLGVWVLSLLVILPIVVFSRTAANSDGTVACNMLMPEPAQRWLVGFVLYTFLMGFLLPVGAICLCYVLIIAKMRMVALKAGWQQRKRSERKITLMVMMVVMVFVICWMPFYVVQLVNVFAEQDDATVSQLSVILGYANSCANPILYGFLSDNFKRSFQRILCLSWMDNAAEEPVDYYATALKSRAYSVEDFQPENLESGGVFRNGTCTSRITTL

[3] = target: human somatostatin receptor subtype SSTR2 (human) (UniProt P30874); assay: FACS, transfected HEK-293 cells
human somatostatin receptor subtype SSTR2 (human), sequence (P30874 whole entry): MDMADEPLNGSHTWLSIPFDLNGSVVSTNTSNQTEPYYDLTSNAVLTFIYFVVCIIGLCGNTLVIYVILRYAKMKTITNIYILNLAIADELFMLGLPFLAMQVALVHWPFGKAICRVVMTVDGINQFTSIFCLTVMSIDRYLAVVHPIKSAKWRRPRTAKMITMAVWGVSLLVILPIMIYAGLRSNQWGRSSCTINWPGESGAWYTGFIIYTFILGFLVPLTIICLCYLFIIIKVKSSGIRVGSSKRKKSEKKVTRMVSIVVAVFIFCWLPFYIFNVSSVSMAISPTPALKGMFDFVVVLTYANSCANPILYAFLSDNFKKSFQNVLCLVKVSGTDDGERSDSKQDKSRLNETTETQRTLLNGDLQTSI

[4] = target: human somatostatin receptor subtype SSTR5 (human) (UniProt P35346); assay: FACS, transfected HEK-293 cells
human somatostatin receptor subtype SSTR5 (human), sequence (P35346 whole entry): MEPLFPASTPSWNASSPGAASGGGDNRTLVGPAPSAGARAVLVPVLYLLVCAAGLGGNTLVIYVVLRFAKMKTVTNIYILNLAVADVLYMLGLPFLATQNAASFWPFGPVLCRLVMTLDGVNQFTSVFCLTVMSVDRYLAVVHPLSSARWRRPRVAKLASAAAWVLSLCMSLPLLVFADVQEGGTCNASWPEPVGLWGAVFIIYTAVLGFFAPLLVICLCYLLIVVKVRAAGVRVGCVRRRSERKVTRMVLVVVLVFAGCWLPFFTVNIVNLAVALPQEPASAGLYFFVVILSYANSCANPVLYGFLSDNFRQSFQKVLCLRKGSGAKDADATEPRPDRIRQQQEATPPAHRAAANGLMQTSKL

[5] = target: human somatostatin receptor subtype SSTR3 (human) (UniProt P32745); assay: FACS, transfected HEK-293 cells
human somatostatin receptor subtype SSTR3 (human), sequence (P32745 whole entry): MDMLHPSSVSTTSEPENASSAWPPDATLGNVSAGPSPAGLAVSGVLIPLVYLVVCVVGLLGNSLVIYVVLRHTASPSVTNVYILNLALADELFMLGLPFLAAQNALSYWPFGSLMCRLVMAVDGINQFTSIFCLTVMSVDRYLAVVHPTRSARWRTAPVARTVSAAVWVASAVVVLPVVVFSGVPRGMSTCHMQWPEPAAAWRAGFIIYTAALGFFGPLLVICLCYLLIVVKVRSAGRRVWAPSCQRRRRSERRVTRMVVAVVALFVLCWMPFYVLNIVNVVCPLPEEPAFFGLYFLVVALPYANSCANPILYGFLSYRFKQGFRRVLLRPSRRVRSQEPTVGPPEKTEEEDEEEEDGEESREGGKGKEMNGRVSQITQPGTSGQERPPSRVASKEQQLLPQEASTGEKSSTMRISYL

[6] = target: human somatostatin receptor subtype SSTR4 (human) (UniProt P31391); assay: FACS, transfected HEK-293 cells; row normalised to highest
[7] = target: human somatostatin receptor subtype SSTR1 (human) (UniProt P30872); assay: as above
[8] = target: human somatostatin receptor subtype SSTR2 (human) (UniProt P30874); assay: as above
[9] = target: human somatostatin receptor subtype SSTR5 (human) (UniProt P35346); assay: as above
[10] = target: human somatostatin receptor subtype SSTR3 (human) (UniProt P32745); assay: as above
[11] = target: human somatostatin receptor subtype SSTR4 (human) (UniProt P31391); assay: FACS, transfected HEK-293 cells; normalised to Compound 1
[12] = target: human somatostatin receptor subtype SSTR1 (human) (UniProt P30872); assay: as above
[13] = target: human somatostatin receptor subtype SSTR2 (human) (UniProt P30874); assay: as above
[14] = target: human somatostatin receptor subtype SSTR5 (human) (UniProt P35346); assay: as above
[15] = target: human somatostatin receptor subtype SSTR3 (human) (UniProt P32745); assay: as above

Binder	Relative binding affinity [1] [%]	Relative binding affinity [2] [%]	Relative binding affinity [3] [%]	Relative binding affinity [4] [%]	Relative binding affinity [5] [%]	Adjusted binding affinity [6]	Adjusted binding affinity [7]	Adjusted binding affinity [8]	Adjusted binding affinity [9]	Adjusted binding affinity [10]	Binding affinity relative to Compound 1 (% of Compound 1) [11]	Binding affinity relative to Compound 1 (% of Compound 1) [12]	Binding affinity relative to Compound 1 (% of Compound 1) [13]	Binding affinity relative to Compound 1 (% of Compound 1) [14]	Binding affinity relative to Compound 1 (% of Compound 1) [15]
B1	22.5	3	6.5	28.5	17	0.79	0.11	0.23	1	0.6	100	100	100	100	100
B2	29	–	–	41	–	0.71	–	–	1	–	129	–	–	144	–
B3	4.5	–	2.5	7	12	0.38	0	0.21	0.58	1	20	0	38	25	71
B4	1.5	–	1.5	0.5	22.5	0.07	0	0.07	0.02	1	7	0	23	2	132
B5	13.3	3.6	4.3	9.3	15.7	0.85	0.23	0.27	0.59	1	59	120	66	33	92
B6	4	5	5	5	4	0.8	1	1	1	0.8	18	167	77	18	24
B7	1.5	–	1	1	2	0.75	0	0.5	0.5	1	7	0	15	4	12
B8	3	–	–	2	–	1	–	–	0.67	–	13	–	–	7	–
B9	4	1	–	9	6	0.44	0.11	0	1	0.67	18	33	0	32	35
B10	1	–	1	–	3	0.33	0	0.33	0	1	4	0	15	0	18
B11	31.5	2.6	4.5	27.5	11.5	1	0.08	0.14	0.87	0.37	140	78	69	96	68
